From EP4696329A1 (BioRay Pharmaceutical Co., Ltd., dated 2024)

B1: ADC-6 (UC961 conjugated to LD-14) (antibody, human IgG1, kappa, V domains shown)
VH: QVQLQESGPGLVKPSQTLSLTCTVSGYAFTAYNIHWVRQAPGQGLEWMGSFDPYDGGSSYNQKFKDRLTISKDTSKNQVVLTMTNMDPVDTATYYCARGWYYFDYWGHGTLVTVSS
VL: DIVMTQTPLSLPVTPGEPASISCRASKSISKYLAWYQQKPGQAPRLLIYSGSTLQSGIPPRFSGSGYGTDFTLTINNIESEDAAYYFCQQHDESPYTFGEGTKVEIKR
modifications: linker-drug LD-14 (eribulin) on cysteine sulfhydryls of reduced disulfides; drug loading 3.7-4.3 per antibody
B2: ADC-7 (UC961 conjugated to LD-1) (antibody, human IgG1, kappa, V domains shown)
VH: QVQLQESGPGLVKPSQTLSLTCTVSGYAFTAYNIHWVRQAPGQGLEWMGSFDPYDGGSSYNQKFKDRLTISKDTSKNQVVLTMTNMDPVDTATYYCARGWYYFDYWGHGTLVTVSS
VL: DIVMTQTPLSLPVTPGEPASISCRASKSISKYLAWYQQKPGQAPRLLIYSGSTLQSGIPPRFSGSGYGTDFTLTINNIESEDAAYYFCQQHDESPYTFGEGTKVEIKR
modifications: linker-drug LD-1 (MMAE) on cysteine sulfhydryls of reduced disulfides; drug loading 3.7-4.3 per antibody
B3: ADC-5 (AM3-ZH3 conjugated to LD-1) (antibody, human IgG1, kappa, V domains shown)
VH: EVQLVESGGGLVQPGGSLRLSCAASGFTFSSYPMSWVRQAPGKGLEWVSSISTGASAYFPDSVKGRFTISRDNAKNSLYLQMNSLRAEDTAVYYCARITTSTWYMDVWGQGTTVTVSS
VL: DIQMTQSPSAMSASVGDRVTITCKASQDIYSYLSWFQQKPGKVPKTLIYRANRLVRGVPSRFSGSGSGQEYTLTISSLQPEDMATYYCLQYDEFPYTFGQGTKLEIKR
modifications: linker-drug LD-1 (MMAE) on cysteine sulfhydryls of reduced disulfides; average DAR between 3.7 and 4.3
B4: AM3-ZH7 (antibody, human IgG1, kappa, V domains shown)
VH: EVQLVESGGGLVQPGGSLRLSCAASGFTFSSYAMSWVRQAPGKGLEWVSSISTGASAYFPDSVKGRFTISRDNAKNSLYLQMNSLRAEDTAVYYCARITTSTWYMDVWGQGTTVTVSS
VL: DIQMTQSPSAMSASVGDRVTITCKASQDIYSYLSWFQQKPGKVPKTLIYRANRLVRGVPSRFSGSGSGQEYTLTISSLQPEDMATYYCLQYDEFPYTFGQGTKLEIKR
B5: ADC-2 (AM3-ZH3 conjugated to LD-14) (antibody, human IgG1, kappa, V domains shown)
VH: EVQLVESGGGLVQPGGSLRLSCAASGFTFSSYPMSWVRQAPGKGLEWVSSISTGASAYFPDSVKGRFTISRDNAKNSLYLQMNSLRAEDTAVYYCARITTSTWYMDVWGQGTTVTVSS
VL: DIQMTQSPSAMSASVGDRVTITCKASQDIYSYLSWFQQKPGKVPKTLIYRANRLVRGVPSRFSGSGSGQEYTLTISSLQPEDMATYYCLQYDEFPYTFGQGTKLEIKR
modifications: linker-drug LD-14 (eribulin) on cysteine sulfhydryls of reduced disulfides; average DAR between 3.7 and 4.3
B6: AM3-ZH1 (antibody, human IgG1, kappa, V domains shown)
VH: EVQLVESGGGLVQPGGSLRLSCAASGFTFSSYPMSWVRQAPGKGLEWVSSISTGASAYFPDSVKGRFTISRDNAKNSLYLQMNSLRAEDTAVYYCARYTTSTWYFDVWGQGTTVTVSS
VL: DIQMTQSPSAMSASVGDRVTITCKASQDIYSYLSWFQQKPGKVPKTLIYRANRLVRGVPSRFSGSGSGQEYTLTISSLQPEDMATYYCLQYDEFPYTFGQGTKLEIKR
B7: H10-hVH4-hVL4 (antibody, human IgG1, kappa, V domains shown)
VH: EVQLVESGGGLVQPGGSLRLSCAASGFTFSSYAMSWVRQAPGKGLEWVSSISTGASAYFPDSVKGRFTISRDNAKNSLYLQMNSLRAEDTAVYYCARITTSTWYFDVWGQGTTVTVSS
VL: DIQMTQSPSAMSASVGDRVTITCKASQDINSYLSWFQQKPGKVPKTLIYRANRLVDGVPSRFSGSGSGQEYTLTISSLQPEDMATYYCLQYDEFPYTFGQGTKLEIKR
notes: also called H10-VH4VL4
B8: AM3-ZH6 (antibody, human IgG1, kappa, V domains shown)
VH: EVQLVESGGGLVQPGGSLRLSCAASGFTFSSYAMSWVRQAPGKGLEWVSSISTGASAYFPDSVKGRFTISRDNAKNSLYLQMNSLRAEDTAVYYCARITTSTWYMDVWGQGTTVTVSS
VL: DIQMTQSPSAMSASVGDRVTITCKASQDIYSYLSWFQQKPGKVPKTLIYRANRLVGGVPSRFSGSGSGQEYTLTISSLQPEDMATYYCLQYDEFPYTFGQGTKLEIKR
B9: AM3-ZH4 (antibody, human IgG1, kappa, V domains shown)
VH: EVQLVESGGGLVQPGGSLRLSCAASGFTFSSYAMSWVRQAPGKGLEWVSSISTGASAYFPDSVKGRFTISRDNAKNSLYLQMNSLRAEDTAVYYCARYTTSTWYHDVWGQGTTVTVSS
VL: DIQMTQSPSAMSASVGDRVTITCKASQDIYSYLSWFQQKPGKVPKTLIYRANRLVRGVPSRFSGSGSGQEYTLTISSLQPEDMATYYCLQYDEFPYTFGQGTKLEIKR
B10: AM3-ZH5 (antibody, human IgG1, kappa, V domains shown)
VH: EVQLVESGGGLVQPGGSLRLSCAASGFTFSSYAMSWVRQAPGKGLEWVSSISTGASAYFPDSVKGRFTISRDNAKNSLYLQMNSLRAEDTAVYYCARITTSTWYMDVWGQGTTVTVSS
VL: DIQMTQSPSAMSASVGDRVTITCKASQDIFSYLSWFQQKPGKVPKTLIYRANRLVSGVPSRFSGSGSGQEYTLTISSLQPEDMATYYCLQYDEFPYTFGQGTKLEIKR
B11: ADC-3 (KIH YR8/ZH3 conjugated to LD-14) (bispecific antibody, human IgG1, kappa)
heavy 1: not shown
light 1: EIVLTQSPATLSLSPGERATLSCSASSQVSYIHWYQQKPGQAPRPWIYETSKLASGIPARFSGSGSGTDYTLTISSLEPEDFAVYYCQQWNYPLITFGQGTKLEIKRTVAAPSVFIFPPSDEQLKSGTASVVCLLNNFYPREAKVQWKVDNALQSGNSQESVTEQDSKDSTYSLSSTLTLSKADYEKHKVYACEVTHQGLSSPVTKSFNRGEC
heavy 2: not shown
light 2: DIQMTQSPSAMSASVGDRVTITCKASQDIYSYLSWFQQKPGKVPKTLIYRANRLVRGVPSRFSGSGSGQEYTLTISSLQPEDMATYYCLQYDEFPYTFGQGTKLEIKRTVAAPSVFIFPPSDEQLKSGTASVVCLLNNFYPREAKVQWKVDNALQSGNSQESVTEQDSKDSTYSLSSTLTLSKADYEKHKVYACEVTHQGLSSPVTKSFNRGEC
modifications: linker-drug LD-14 (eribulin) on cysteine sulfhydryls of reduced disulfides; average DAR between 3.7 and 4.3
B12: ADC-4 (KIH YR8/ZH3 conjugated to LD-1) (bispecific antibody, human IgG1, kappa)
heavy 1: not shown
light 1: EIVLTQSPATLSLSPGERATLSCSASSQVSYIHWYQQKPGQAPRPWIYETSKLASGIPARFSGSGSGTDYTLTISSLEPEDFAVYYCQQWNYPLITFGQGTKLEIKRTVAAPSVFIFPPSDEQLKSGTASVVCLLNNFYPREAKVQWKVDNALQSGNSQESVTEQDSKDSTYSLSSTLTLSKADYEKHKVYACEVTHQGLSSPVTKSFNRGEC
heavy 2: not shown
light 2: DIQMTQSPSAMSASVGDRVTITCKASQDIYSYLSWFQQKPGKVPKTLIYRANRLVRGVPSRFSGSGSGQEYTLTISSLQPEDMATYYCLQYDEFPYTFGQGTKLEIKRTVAAPSVFIFPPSDEQLKSGTASVVCLLNNFYPREAKVQWKVDNALQSGNSQESVTEQDSKDSTYSLSSTLTLSKADYEKHKVYACEVTHQGLSSPVTKSFNRGEC
modifications: linker-drug LD-1 (MMAE) on cysteine sulfhydryls of reduced disulfides; average DAR between 3.7 and 4.3
B13: KIH YR8/ZH3, an ROR1-targeting biepitopic antibody (bispecific antibody, human IgG1, kappa)
heavy 1: not shown
light 1: EIVLTQSPATLSLSPGERATLSCSASSQVSYIHWYQQKPGQAPRPWIYETSKLASGIPARFSGSGSGTDYTLTISSLEPEDFAVYYCQQWNYPLITFGQGTKLEIKRTVAAPSVFIFPPSDEQLKSGTASVVCLLNNFYPREAKVQWKVDNALQSGNSQESVTEQDSKDSTYSLSSTLTLSKADYEKHKVYACEVTHQGLSSPVTKSFNRGEC
heavy 2: not shown
light 2: DIQMTQSPSAMSASVGDRVTITCKASQDIYSYLSWFQQKPGKVPKTLIYRANRLVRGVPSRFSGSGSGQEYTLTISSLQPEDMATYYCLQYDEFPYTFGQGTKLEIKRTVAAPSVFIFPPSDEQLKSGTASVVCLLNNFYPREAKVQWKVDNALQSGNSQESVTEQDSKDSTYSLSSTLTLSKADYEKHKVYACEVTHQGLSSPVTKSFNRGEC
notes: chain 1: YR-8-ES arm with Fc knob (T366W); chain 3: AM3-ZH3 arm with Fc hole (T366S, L368A, Y407V); made by reduction and mixing of YR-8-ES variant 1 and AM3-ZH3 variant 1

Experiments:
[1] = target: T1, human ROR1 expressed on cells (MDA-MB-231, Jeko-1, PA-1, HCC1187) (human, UniProt Q01973 30-937); assay: cell-based or functional assay
T1 sequence (Q01973 30-937 limits assumed): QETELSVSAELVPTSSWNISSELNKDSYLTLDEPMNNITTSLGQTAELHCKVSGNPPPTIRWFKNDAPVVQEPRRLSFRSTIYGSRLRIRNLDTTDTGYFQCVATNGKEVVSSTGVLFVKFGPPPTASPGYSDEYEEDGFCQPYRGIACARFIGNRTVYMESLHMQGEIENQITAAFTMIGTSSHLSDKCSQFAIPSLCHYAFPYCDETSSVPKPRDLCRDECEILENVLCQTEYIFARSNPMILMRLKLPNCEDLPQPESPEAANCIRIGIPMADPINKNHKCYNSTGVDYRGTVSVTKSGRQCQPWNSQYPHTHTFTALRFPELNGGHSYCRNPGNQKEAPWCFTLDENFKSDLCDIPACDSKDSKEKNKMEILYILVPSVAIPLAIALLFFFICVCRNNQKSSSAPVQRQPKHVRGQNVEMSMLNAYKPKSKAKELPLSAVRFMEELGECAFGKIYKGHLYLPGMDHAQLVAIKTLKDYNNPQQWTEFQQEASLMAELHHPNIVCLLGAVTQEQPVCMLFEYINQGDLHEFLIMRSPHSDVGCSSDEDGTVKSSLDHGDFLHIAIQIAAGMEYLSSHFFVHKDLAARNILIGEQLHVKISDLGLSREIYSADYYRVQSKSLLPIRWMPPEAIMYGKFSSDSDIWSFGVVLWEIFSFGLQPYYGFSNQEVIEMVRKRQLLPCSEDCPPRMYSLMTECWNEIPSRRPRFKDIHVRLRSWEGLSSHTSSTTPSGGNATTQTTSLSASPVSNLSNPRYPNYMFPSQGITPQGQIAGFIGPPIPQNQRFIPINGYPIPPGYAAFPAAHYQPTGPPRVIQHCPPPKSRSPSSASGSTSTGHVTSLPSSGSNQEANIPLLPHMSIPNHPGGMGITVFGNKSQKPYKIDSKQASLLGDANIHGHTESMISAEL

[2] = target: T2, human ROR1 protein (recombinant ROR1 antigen, Kactus Biosystems) (human, UniProt Q01973 30-406, limits assumed); assay: BLI (Octet R8), antibody captured on AHC sensor, ROR1 antigen as analyte
T2 sequence (Q01973 30-406 limits assumed): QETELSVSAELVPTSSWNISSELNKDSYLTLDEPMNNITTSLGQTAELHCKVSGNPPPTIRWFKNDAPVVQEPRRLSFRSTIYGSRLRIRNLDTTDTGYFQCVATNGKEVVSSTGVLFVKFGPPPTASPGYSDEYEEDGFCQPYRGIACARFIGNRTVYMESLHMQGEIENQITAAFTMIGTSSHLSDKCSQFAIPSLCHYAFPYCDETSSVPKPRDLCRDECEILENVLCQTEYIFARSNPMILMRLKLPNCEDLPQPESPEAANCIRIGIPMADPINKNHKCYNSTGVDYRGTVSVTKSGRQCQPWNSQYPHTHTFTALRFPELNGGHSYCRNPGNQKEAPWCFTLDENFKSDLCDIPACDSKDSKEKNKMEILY

[3] = target: human ROR2 protein (hROR2, Kactus Biosystems, Cat. No. ROR-HM402) (human, UniProt Q01974 34-403, limits assumed); assay: ELISA, plate coated with hROR2
human ROR2 protein (hROR2, Kactus Biosystems, Cat. No. ROR-HM402), sequence (Q01974 34-403 limits assumed): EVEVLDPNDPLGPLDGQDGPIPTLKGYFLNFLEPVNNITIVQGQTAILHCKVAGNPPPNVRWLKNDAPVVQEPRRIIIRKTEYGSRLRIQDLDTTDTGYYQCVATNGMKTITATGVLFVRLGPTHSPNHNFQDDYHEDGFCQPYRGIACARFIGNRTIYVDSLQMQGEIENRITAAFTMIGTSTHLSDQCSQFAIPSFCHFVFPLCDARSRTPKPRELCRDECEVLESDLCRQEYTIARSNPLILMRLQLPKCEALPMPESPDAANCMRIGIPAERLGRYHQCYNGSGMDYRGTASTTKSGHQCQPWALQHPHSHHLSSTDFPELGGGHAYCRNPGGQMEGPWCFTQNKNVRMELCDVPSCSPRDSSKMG

[4] = target: T1, human ROR1 expressed on cells …; assay: flow cytometry on MDA-MB-231 cells
[5] = target: T2, human ROR1 protein (recombinant ROR1 …); assay: binding to ROR1 (column 'Binding to ROR1'; method not described)
[6] = target: T1, human ROR1 expressed on cells …; assay: flow cytometry on PA-1 cells
[7] = target: T1, human ROR1 expressed on cells …; assay: flow cytometry on Jeko-1 cells

Binder | inhibitory IC50 against the proliferation of HCC1187 cells (CellTiterGlo2) [1] [nM] | inhibitory IC50 against the proliferation of Jeko1 cells (CellTiterGlo2) [1] [nM] | inhibitory IC50 against the proliferation of PA-1 cells (CellTiterGlo2) [1] [nM] | Kd [2] [nM] | binding result [3] | EC50 [4] [µg/mL] | EC50 [5] [µg/mL] | also measured
B1 | 0.24 | 2.08 | 0.36 | – | – | – | – | –
B2 | 15.4 | 76.3 | 15.1 | – | – | – | – | –
B3 | 6.3 | 65.1 | 17.8 | – | – | – | – | –
B4 | – | – | – | 8.5 | no binding (tested: starting from 333.33 nM) | 0.0101 | 0.0115 | –
B5 | 0.09 | 0.285 | 0.017 | – | – | – | – | –
B6 | – | – | – | 7.9 | binds | 0.0169 | 0.0127 | –
B7 | – | – | – | 47 | no binding (tested: starting from 333.33 nM) | 0.0304 | 0.0144 | –
B8 | – | – | – | 11 | no binding (tested: starting from 333.33 nM) | 0.013 | 0.012 | –
B9 | – | – | – | 27 | no binding (tested: starting from 333.33 nM) | 0.0163 | 0.0161 | –
B10 | – | – | – | 10 | no binding (tested: starting from 333.33 nM) | 0.0148 | 0.0124 | –
B11 | 0.014 | 0.018 | 0.032 | – | – | – | – | –
B12 | 1.2 | 46.6 | 4.2 | – | – | – | – | –
B13 | – | – | – | – | – | – | – | EC50 [6]: 0.41 nM; MFI fold [6]: 7 fold; EC50 [7]: 0.19 nM; MFI fold [7]: 8.2 fold
